In the DeepSol protein solubility set:

Assay: soluble on expression in E. coli; label from the status in PepcDB or PDB records

Sequence	soluble on expression in E. coli
MGSDKIHHHHHHMQQVISDIMTFRGSHFELGVKTGKWLQQTPLLKNREKEWKKRVPRFDIDVNETYQIFQTYAPQIWEELMGLQSILKMPTRQIILNFGHYRFTDLKESGCTVFQGKDFMVRNYDYHPATYDGRYLLYQPTDSGLAQIGPVSRVTGRMDGMNESGLTMGYNFMHRKKPANGFVCYMIGRLILENCRNVTEAIQLLKEIPHRSSFSYILMDKSLNHAIVEVTPRSIDVRYDNICTNHFEILTHENRNYTKESKERLARTISQTNDNLDMTTAFKLFNNPQYEIYSKLFKSWSGTIHTSMYQPETLTAYFTLGENAPPEIIDFKSWLDGQDLNITHFTGNIDTDLTFANK	not soluble
SNAMNILIIGNGGREHALGWKAAQSPLADKIYVAPGNAGTALEPTLENVDIAATDIAGLLAFAQSHDIGLTIVGPEAPLVIGVVDAFRAAGLAIFGPTQAAAQLEGSKAFTKDFLARHNIPSAEYQNFTDVEAALAYVRQKGAPIVIKADGLAAGKGVIVAMTQEEAETAVNDMLAGNAFGDAGHRIVVEEFLDGEEASFIVMVDGENVLPMATSQDHKRVGDGDTGPNTGGMGAYSPAPVVTDDVHQRVMDQVIWPTVRGMAAEGNIYTGFLYAGLMISADGQPKVIEFNCRFGDPETQPIMLRMRSDLVELCLAGTQGKLNEKTSDWDERPSLGVVLAAGGYPADYRQGDVIHGLPQQEVKDGKVFHAGTKLNGNHEVVTNGGRVLCVTALGETVAQAQQYAYQLAEGIQWEGVFCRKDIGYRAIARGK	soluble
METHLGWARSLEAVLSDRSALDAFQEWLIEYSSPQYLDLFFAIRAYERMALEGKPEKSQLSKSIYSKFLSSRTGNCEAIPKHFRAPIGEKLRHGTELEDRVFSHCSNFVQEFLRRQHEEFVGSEEFIEAFNKMSSTTADQLPGGSAHHSSHQNTMRRSSGTTSRKSAAQIATQLTAEALLKSKHDRHSKLGETKLEKMYPPTRQPYVCNATTSHNDSAVSSTFSGDTPEAHRMHSNRLRHIRDEQARENHGTMTLPRVEKASVDGQQWDHSSESGRRNFAMEITRKLLRHIDKVKLNDEMEKRIDDIEECRYTTIDMVNGTEPNDDLGKIDEDEELDDYLKMKMTDDSQKGSTNRSPKGPAGEPNKSGEGSKNTTLSPTNRAPAQLHNTIRVPRRKDYPRDTSASLKSHRHHQIDTNRMMSQSMCAPSYSSASSSYSRDSFAPAPTTRVNFAPGSSKSSQFYDSSGIGSMAPSAFSATSSLDYKDRRQHRKAPTPKKHSKIGKNLSNLITISYLGTDKIPVVTHVPNDGPMTLAEFKRHFALPNGAHQLFFKTECEDGSAPFQLLLIKDEHHLLPVFEGRIAAELR	not soluble
MSLKLEAYRTLHCDAGWRRFSFLKLIAEDGTTGISEYNECYGSPGLTGVIEGVLEWIIGKNPFSHEKLSAELYARTRQAHGGIAQQAIAAVENALVDLKARSLGVPVYELLGGAVREELPLYWSHCGSYRLPRTAEMLGVPPITSLDDLVSLGKEVREKGFSALKTNIFLFEEQPHMHQPGFARSEGWPALNPERRIINSLKEQLAAFREGAGPELEILLDLNFNYRTEGFLTVCRALDDLGLGWFEMDLYDPAALARIRHALKTPVASCESLFGLRGFRPFFENQSMDVAIVDVPWNGIWQAMKIAGLAESFEVNVAPHNFYGHLSTLMSAHFCAAIPNFRIMEIDIDDVPWKDELVTKSPLIRDGILKIPEGIGWGTELNEEAIAAHPVKNTGDDRKYDRGMGEGHHHHHH	soluble
GSADETLCQTKVLLDIFTGVRLYLPPSTPDFSRLRRYFVAFDGDLVQEFDMTSATHVLGSRDKNPAAQQVSPEWIWACIRKRRLVAPC	soluble
ETRVRRTKTIVEITGLDARSGSLRINELYRWEPVHDNFKRAGDSYVLNEIMRARGWSPDKLFIEFKNREQILAYMTAKQIRDYVSVSLIVHMYATNPQLVMEAVGNDTLRDMVAHHS	not soluble
MTLTAQKNSWWVGAHAGREYFNNTSEDMKKGWNTGVVLRYYFSDRIYSLATLNYGFASSLSPSGYFDELGNSPNARFRRHSILPAVGLGYEFFQGDFYSCYAQGGVGYGMEYNSVSYPQEYDVSVKRFGWLAELGGDYFLRDNLSLGISVAHLRVGWRNNWTANVKLSICLL	not soluble
MQKRVTDEEIKERLGKIKSRIAVMSGKGGVGKSTVTALLAVHYARQGKKVGILDADFLGPSIPILFGLRNARIAVSAEGLEPVLTQKYGIKVMSMQFLLPKENTPVIWRGPLIAGMIREFLGRVAWGELDHLLIDLPPGTGDAPLTVMQDAKPTGVVVVSTPQELTAVIVEKAINMAEETNTSVLGLVENMSYFVCPNCGHKSYIFGEGKGESLAKKYNIGFFTSIPIEEELIKLADSGRIEEYEKDWFESAPFLEHHHHHH	soluble
MNYRHIYHAGNFADVFKHIIVTRIIEYLKRKEKAFRVIDTHAGIGIYDLSSLEAHKTGEWREGVYQLLSTPIPEDLKALLYPWCNIIETLNKGKKDILFYPGSPVLIRQLLRKQDRLTAIELHREDYHILAKNFAGDYQTKVLHLNGWLSLNAHLPPKEKRGFILVDPPFEKPGEFSRLIEGLMKAYRRFSGGIYALWYPVKYDKEIENFLHALHQTGIPKILQLEMRIRKSSIPPTMNGSGMILINPPYLLEEEIKKLSPFLIARLGQDKNAQITHKWIQKEQLLC	not soluble
MKYDWILFDADETLFHFDAFKGLQLMFSRKGVDFTEQDFAHYQTVNKPLWVDYQDGKVTADELKHKRFTEWAEKLNTTTADLNSAFLEAMADICS	not soluble
MADPKGFLTTPREEWPRRPAGERVRDWDEVYVPGALLPIVGRQADRCMDCGVPFCHEACPLGNLIPEWNDLVSRSDWRAASERLHATNNFPEFTGRLCPAPCEAGCVLAINQPAVTIKNVECAIADTAWEEGFVPPLPPERLSGRTVAVIGSGPAGLAAAQQLTRAGHTVAVYERDDRIGGLLRYGIPAFKMEKRHLERRVGQMRAEGTRFRTSAAVGRDVDAAALRTRYDAVVIATGATAWRELTVPGRELAGVHQAMEYLPLANRVCEGDLERSPLSAAGRHVVVVGGGDTGADCLGTAVREGAASVTQLDIYARPGAERDERAEPWPTYPRLYRLSAAHEEARDLRSAPAADADARLFAASTLRFTGDERGHVRALHLVGVDTGRRPLPGSERSLPADLVLLALGFSGPDRHDGLVDGLGLDMEPRGTITRDRGFATNVPGVFAAGDAARGQSLVVWAIAEGRAVAAAVDRHLSGGSTRLPAPVGPYDRPMTALEHHHHHH	not soluble
MIFERIKSEGLAHLSYFVGSGNEAIVIDPRRDCQIYFDIARREGMKIKYIFETHRNEDYVIGSLELKELTDAEIYHGKGVDFKYGIFVSDGQEFNFGSMKLTALHTPGHTDESMSYALTYPESGKAPLMVFTGDALFVGDVGRTDLYGPEEIPRMAANLYESIFNKILPLGDGVILCPAHGAGSLCGGAISKREYSTLGLERIQNPALQRTDKEEFIKFKLEEKLEFPPYFKKMEQYNLQGPPLLKGLPVPELLFPKEFVKEMEKGAMVVDTRMPHSFGGAHIKGSYGIWLKGLPYYAGWVLPYDKPILLVLEEKDQLETAVSYLVRIGYDSIAGFLNGGISSWYMKALPVESLNLISVQSLKDKIEKNEEMVILDVRRDEEWEKGHIEGARHVYVGHLEENLDKVPRNSPIIVYCDSSRRSNIAASILKKKGYDMVYNVLGSMTAWKNAGYKVVKLEHHHHHH	soluble
MAHHHHHHMATPKQKETICEAAIVGFSFNKDRTEAVFSPNNHLLYIVSCKDIKDCSTWEIYATLEHHDQSVSATAWHGSTNRILSCSQDRTAFVWQRNAKGKWKPQMVMLDAGVKRGLTSCAWNHSGSKIYVGSAASNIAVGRFDAENEWWICRLLEGHTSTVTALAPHPSDDTLLLSGGTDGRLMLISTFMKKLDGKKSSSFGHVYLEKCFGAWVHAIAWAPSGQRFAVATHDSRVHVFDIPSVDNLSESIDEGLAIYSVSLAILPLKSLAFVLEDHLVGGGFDYFPALFQPSKKGTGWTMSGKWTMTRVKGAKTAQQIAREKFQNEARIGQAELLEEEQTRHKNTINGVLTLIDDGAAFKSAMEGPVFATASLDGRVEVWTIRDMIPII	not soluble
MGSDKIHHHHHHMFEPFPGNYVWNLGINLALIAGGNHGELDEVCRPVREAAKAGADAGSALLFDSWIAVADQVTRNAERDEAEGFLLSAGAKYLRASGYYLGAERLQSRDYAPRWVAYDKGLELYHKGSALSGLHVDKVEIPYEGSSYPAIFVHDGSGTPRPTLVSVNGLDSMKEQVNMAGHGAVNLARGMNTLFLDQPGTGEAIRKRNLPAVFDAERWGSPAFDYLLTRSDVIHSQIGIFGLSFGGYHAPRIAANDPRYALCAVMGANHVWGQRQRERVANEGENPVPHYWDHVMWVFGIDDQAAFLEYADQITLDGQVEKIRVPFLITHGENDRQIPAYNAQMSYDQAVNSPKRTLRIFTRADFEVEHCGADNGTGMRDYIADWCAQTFAEMAGNKG	not soluble
MAGKVKWVTDIEKSVLINNFEKRGWIQVTDSEDWNFYWMSIQTIRTVFSVDTGYRLTDDQMVNHFPNHYELTRKDLMIKNIKRYRRELEKENSALAEKDDSGKYIYLDFVPVTFMLPADYNLFVEEFRKSPSSTWIMKPCGKAQGKGIFLINKLSQIKKWSRDSRTSTFVAANSGKEAYVISLYIDNPLLIGGKKFDLRLYVLVTTYRPLKCYMWVQESSE	not soluble
MGSDKIHHHHHHMSILTVENVSHSYGEKTILYNACFRLLKGEHVGLVGQNGIGKSTLLKILTGELIHDEGNIEWFPHVKVGFLQQHIDLQEGITIEGYLQSAFADLYVIECEMLKIAEEMNGAGEVEKLLVKYGELQTILESSNFYHIHTEVEEVAIGLGLFEIGLKKDVSKLSGGQRTKLLLGKLLLEKADVLLLDEPTNYLDTAHIEWLQSYLRLYEKAYVIISHDELFLNSITNVIFHLEGGKVKRYVGNYEKFVQSYQVQKKQLQSAYVKQQKEISQLETFIQKNKIRKAKQAKSREKVLEKMQRIEKIHPVPRSRFDFNVYEEPVSRILQAEKLRIGYSDPLCPELNLQVKKGEKIAIIGHNGIGKTTMLKTLLGQIKPLSGSISVGERVNPAYFAQEEFASETTPLEKVWAERPDMTKKEVRQALAKCGLKEEHVLKPIRLLSGGEQTKVRLCELIVKKSNVLILDEPTNHLDIETKKALQEALQRYRGTVLLVSHEPSFYEAWITKVWNIEEWNAEQYE	not soluble
MRKRKPLDYYLSLKYPVLLVAEPEGGYTALHPDLEGCVSVGETPEEALANLEEARRLWLEAAYEHGDEIPLPSTEREYSGRVLVRMPKSLHRRLDEEAKAEGVSLNQYIVSLPAERSSLRALKRELTRTGRAAEAPDSWEWGTSSGGGIWTGVLA	soluble
NIDSNKKILQEIKRYADEHEERYGRFPKTLIFAVQDLANSSSHADQIVDQARDIFGRGDSFVQKITGKVDRPLQRIREFRNRKEPGIAVTVDLLSTGVDVPDIEYIVFLRSMKSRILFEQMIGRGTRKGEH	not soluble
MSLKKFSCGFEVTKEVIGGKWKGLVLYFLMNGPKRTSELKRIIPNITQKMLIQTLRELEASGLVSRKMYNQVPPKVEYSSTELGESLKPILQELCQWGGYYAEQEYAEGEYEIVQPEQLSEGGSHHHHHH	soluble
MGSDKIHHHHHHMVDGMKHLILKVTNRCNLNCIYCYANNKNNKDMDFKTAKNAIDYLLNLDNQIKIQFTGGEPLLNFNLIEKIVDYCNDNYSNCNIQYAIQTNATLINEKIAEKIKELDIKVGISIDGLEINDILRPYKNGKPSTLDTLKGMYILKSYNIPFGITTVVTNKNLPYLEEFVKYLIAFGVKSISFDLLKPKKKEHLTLMPNIEEFNKLLNKLGRYPIYIKNLQKRPKDKYCYLNSGDLLFVNEFGDIYLCPTLEGLSCLGNINDKNKIKLPKVKSKGCYAREFLIKTFKK	not soluble
